Here are results for 50 sequences from the supplement of paper PMC9112550, “Optimization of the antimicrobial peptide Bac7 by deep mutational scanning” (BMC Biology, 2022).

The subject of the data set is Escherichia coli TOP10. Kind of data set: shrunken log2 fold change of peptide-encoding DNA abundance (4.5 h post-induction vs induction); higher = less antimicrobial activity (less host growth inhibition). Conditions: time post-induction: 4.5 h; library: site-saturation at positions 5, 18, 19, 20.
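Further: peptides expressed intracellularly from a pBAD plasmid library in pooled LB shake-flask culture, induced with 0.3% L-arabinose, DNA abundance read by NGS, three biological replicates, DESeq2 with apeglm shrinkage.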

As to RRIRPRPPRLPRPRPRPWMQPRP, the “shrunken log2 fold change” value is 0.0452.
With RRIRSRPPRLPRPRPRPMREPRP the figure was 0.142; with RRIRTRPPRLPRPRPRPYRSPRP, 0.0429; with RRIRIRPPRLPRPRPRPTIDPRP, -0.356.
The figure for RRIRKRPPRLPRPRPRPTRTPRP is 0.951; for RRIRSRPPRLPRPRPRPNLTPRP it is -0.15; for RRIRARPPRLPRPRPRPGQTPRP it is 0.178.
The figure for RRIRSRPPRLPRPRPRPFIGPRP is -1.15; for RRIRNRPPRLPRPRPRPDPPPRP it is 0.143; for RRIRSRPPRLPRPRPRPITRPRP it is -0.221.
For the sequence RRIRVRPPRLPRPRPRPYMNPRP, the “shrunken log2 fold change” value is -0.962.
Regarding RRIRGRPPRLPRPRPRPRAKPRP, the “shrunken log2 fold change” value came out at 1.22.
The figure for RRIRPRPPRLPRPRPRPERKPRP is 0.489; for RRIRVRPPRLPRPRPRPRCMPRP it is -0.23.
The figure for RRIRIRPPRLPRPRPRPYKEPRP is 0.0131; for RRIRMRPPRLPRPRPRPHAWPRP it is 0.365; for RRIRFRPPRLPRPRPRPMEFPRP it is -0.194.
The figure for RRIRDRPPRLPRPRPRPWCPPRP is -0.422.
For the sequence RRIRCRPPRLPRPRPRPAFHPRP, the “shrunken log2 fold change” value was -0.389.
For the sequence RRIRHRPPRLPRPRPRPYKLPRP, the “shrunken log2 fold change” value is -0.611.
The figure for RRIRRRPPRLPRPRPRPGEYPRP is 0.264.
The figure for RRIRWRPPRLPRPRPRPYKWPRP is -0.484; for RRIRSRPPRLPRPRPRPSMQPRP it is -0.242; for RRIRHRPPRLPRPRPRPVNMPRP it is -0.00401.
The figure for RRIRRRPPRLPRPRPRPDPPPRP is 0.443.
As to RRIRIRPPRLPRPRPRPVRYPRP, the “shrunken log2 fold change” value came to 0.326.
The figure for RRIRVRPPRLPRPRPRPRKEPRP is -0.0286.
The figure for RRIRMRPPRLPRPRPRPEGEPRP is 0.123.
The figure for RRIRCRPPRLPRPRPRPGVQPRP is -0.419; for RRIRYRPPRLPRPRPRPYHHPRP it is -0.0688; for RRIRARPPRLPRPRPRPNHCPRP it is 0.956.
RRIRSRPPRLPRPRPRPVRCPRP: the “shrunken log2 fold change” value was 0.221.
Take RRIRSRPPRLPRPRPRPKIAPRP: the “shrunken log2 fold change” value amounted to 0.0525.
The figure for RRIRKRPPRLPRPRPRPWCDPRP is -0.377; for RRIRARPPRLPRPRPRPAMGPRP it is 0.505.
Turning to RRIRKRPPRLPRPRPRPMAIPRP, the “shrunken log2 fold change” value is 0.116.
With RRIRMRPPRLPRPRPRPITCPRP the figure was -0.0534; with RRIRWRPPRLPRPRPRPNHWPRP, -0.0748; with RRIRCRPPRLPRPRPRPQGYPRP, -0.0448.
With RRIRVRPPRLPRPRPRPQCLPRP the figure was -0.0868; with RRIRIRPPRLPRPRPRPRNEPRP, 0.227.
RRIRERPPRLPRPRPRPKEYPRP: the “shrunken log2 fold change” value was -0.0204.
Regarding RRIRNRPPRLPRPRPRPIPMPRP, the “shrunken log2 fold change” value is -0.026.
The figure for RRIRPRPPRLPRPRPRPDDLPRP is -0.296.
The figure for RRIRTRPPRLPRPRPRPEIYPRP is -0.329.
Consider RRIRCRPPRLPRPRPRPFCVPRP, for which the “shrunken log2 fold change” value is -0.248.
The figure for RRIRPRPPRLPRPRPRPICFPRP is -0.189.
The figure for RRIRNRPPRLPRPRPRPYMWPRP is -0.328.
RRIRRRPPRLPRPRPRPGALPRP: the “shrunken log2 fold change” value worked out at 0.502.
With RRIRERPPRLPRPRPRPWGKPRP the figure was -0.042.
